Assays:
[1] = biological target: carboxymethyl lysine conjugated to keyhole limpet hemocyanin (CML-KLH); assay: direct binding ELISA, CML-KLH coat 1 ug/mL, antibody at 5.56 ug/mL
[2] = biological target: carboxymethyl lysine conjugated to keyhole limpet hemocyanin (CML-KLH); assay: direct binding ELISA, CML-KLH coat 1 ug/mL, antibody at 0.21 ug/mL
[3] = biological target: carboxymethyl lysine conjugated to keyhole limpet hemocyanin (CML-KLH); assay: direct binding ELISA, CML-KLH coat 1 ug/mL, antibody at 1.85 ug/mL
[4] = biological target: carboxymethyl lysine conjugated to keyhole limpet hemocyanin (CML-KLH); assay: direct binding ELISA, CML-KLH coat 1 ug/mL, antibody at 50 ug/mL
[5] = biological target: carboxymethyl lysine conjugated to keyhole limpet hemocyanin (CML-KLH); assay: direct binding ELISA, CML-KLH coat 1 ug/mL, antibody at 0.62 ug/mL
[6] = biological target: carboxymethyl lysine conjugated to keyhole limpet hemocyanin (CML-KLH); assay: direct binding ELISA, CML-KLH coat 1 ug/mL, antibody at 0.07 ug/mL
[7] = biological target: carboxymethyl lysine conjugated to keyhole limpet hemocyanin (CML-KLH); assay: direct binding ELISA, CML-KLH coat 1 ug/mL, antibody at 16.67 ug/mL

OD450 absorbance [1]: 0.165 OD450
OD450 absorbance [2]: 0.075 OD450
OD450 absorbance [3]: 0.092 OD450
OD450 absorbance [4]: 0.462 OD450
OD450 absorbance [5]: 0.083 OD450
OD450 absorbance [6]: 0.086 OD450
OD450 absorbance [7]: 0.312 OD450
Substance: anti-carboxymethyl lysine (CML) antibody (R&D Systems, MAB3247)

Source: patent publication US20240000930A1
